Reference: publication PMC4643051

Columns and labels:
[1] = target: NS1^HA mutant S114A (Dengue virus type 2 (DENV-2), strain 16681); assay: co-IP
[2] = target: NS1^HA mutant W115A (Dengue virus type 2 (DENV-2), strain 16681); assay: co-IP

## Envelope protein (E) of Dengue virus (from UniProt P29990) (natural protein)
[1]
  fold reduction of co-precipitated Envelope against wild-type NS1^HA: 7.5 fold
[2]
  fold reduction of co-precipitated Envelope against wild-type NS1^HA: 3.8 fold
